{"source": "patent CN117886936A", "molecular_target": "hCD47-ECD-his (human) (UniProt Q08722)", "sequence (Q08722 other isoform, or with tags, fused parts or gaps)": "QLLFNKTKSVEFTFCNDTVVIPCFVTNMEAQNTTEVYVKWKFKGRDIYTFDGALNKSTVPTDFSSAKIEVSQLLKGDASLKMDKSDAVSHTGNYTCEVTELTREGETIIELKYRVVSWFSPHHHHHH", "experiment": "ELISA on coated human CD47-his after pre-incubating the antibody with human red blood cells (1E8/well)"}
{"substance": "ALX148", "values": [{"measurement": "EC50", "result": 3.15, "unit": "µg/mL"}]}
